Publication PMC4493562, “Mechanistic studies of a novel C-S lyase in ergothioneine biosynthesis: the involvement of a sulfenic acid intermediate” (Scientific Reports, 2015)

Columns and labels:
purified protein [1] = substrate: C[N+](C)(C)[C@@H](Cc1cnc(SC[C@H](N)C(=O)O)[nH]1)C(=O)[O-]; assay: purified protein; type: biochemical, Mycolicibacterium smegmatis; conditions: 50 mM KPi pH 8.0, 1.0 mM DTT, 10 nM EgtE, 0.13 mM NADH, LDH
purified protein [2] = substrate: C[N+](C)(C)[C@@H](Cc1cnc([S+]([O-])C[C@H](N)C(=O)O)[nH]1)C(=O)[O-]; assay: purified protein; type: biochemical, Mycolicibacterium smegmatis; conditions: 50 mM KPi pH 8.0, 1.0 mM DTT, 10 nM EgtE, 0.13 mM NADH, LDH

B1: EgtE (Mycolicibacterium smegmatis MC2 155) (protein)
chain: MMLAQQWRDARPKVAGLHLDSGACSRQSFAVIDATTAHARHEAEVGGYVAAEAATPALDAGRAAVASLIGFAASDVVYTSGSNHAIDLLLSSWPGKRTLACLPGEYGPNLSAMAANGFQVRALPVDDDGRVLVDEASHELSAHPVALVHLTALASHRGIAQPAAELVEACHNAGIPVVIDAAQALGHLDCNVGADAVYSSSRKWLAGPRGVGVLAVRPELAERLQPRIPPSDWPIPMSVLEKLELGEHNAAARVGFSVAVGEHLAAGPTAVRERLAEVGRLSRQVLAEVDGWRVVEPVDQPTAITTLESTDGADPASVRSWLIAERGIVTTACELARAPFEMRTPVLRISPHVDVTVDELEQFAAALREAP
notes: cloning details in supplement
Km (purified protein [1]): 1960 ± 250 µM
kcat (purified protein [1]): 7.93 ± 0.05 s⁻¹
Km (purified protein [2]): 121.2 ± 6.6 µM
kcat (purified protein [2]): 25.27 ± 0.45 s⁻¹
